Measured values reported in the Immune Epitope Database (IEDB).
Each block holds one sequence with its values, some of them ahead of it.

Key:
[1] = target: HLA-A*24:03; test: IEDB peptide-MHC binding, purified MHC/direct/fluorescence; filed as Kd, often an IC50 or EC50 that approximates it; ≥ and ≤ were set here for values at or beyond the usual limits of such assays
[2] = target: HLA-A*11:01; test: as above
[3] = target: HLA-B*35:01; test: as above; settings: source organism: Corynebacterium glutamicum
[4] = target: HLA-A*26:01; test: as above
[5] = target: HLA-A*03:01; test: as above
[6] = target: HLA-B*27:05; test: as above
[7] = target: HLA-A*01:01; test: as above
[8] = target: HLA-B*08:01; test: as above
[9] = target: HLA-B*07:02; test: as above
[10] = target: HLA-B*58:01; test: as above
[11] = target: HLA-A*31:01; test: as above
[12] = target: HLA-B*40:01; test: as above
[13] = target: HLA-B*15:01; test: as above
[14] = target: HLA-A*30:01; test: as above; settings: source organism: Corynebacterium glutamicum
[15] = target: HLA-A*02:01; test: as above
[16] = target: HLA-A*69:01; test: as above
[17] = target: HLA-B*57:01; test: as above
[18] = target: HLA-A*26:03; test: as above; settings: source organism: Variola virus
[19] = target: HLA-A*68:02; test: as above
[20] = target: HLA-B*08:03; test: as above
[21] = target: HLA-A*26:02; test: as above; settings: source organism: Variola virus
[22] = target: HLA-B*18:01; test: as above; settings: source organism: Camelpox virus M-96
[23] = target: HLA-B*46:01; test: as above; settings: source organism: Camelpox virus M-96
[24] = target: HLA-B*48:01; test: as above; settings: source organism: Camelpox virus M-96
[25] = target: HLA-B*15:17; test: IEDB peptide-MHC binding, purified MHC/competitive/fluorescence; filed as Kd, often an IC50 or EC50 that approximates it; ≥ and ≤ were set here for values at or beyond the usual limits of such assays; settings: source organism: Vaccinia virus WR
[26] = target: HLA-B*08:01; test: IEDB peptide-MHC binding, purified MHC/competitive/fluorescence; ≥ and ≤ were set here for values at or beyond the usual limits of such assays
[27] = target: HLA-A*24:02; test: as above; settings: source organism: Variola virus
[28] = target: HLA-B*07:02; test: as above; settings: source organism: Variola virus
[29] = target: HLA-A*11:01; test: as above; settings: source organism: Zaire ebolavirus
[30] = target: HLA-A*23:01; test: IEDB peptide-MHC binding, purified MHC/direct/fluorescence; filed as Kd, often an IC50 or EC50 that approximates it; ≥ and ≤ were set here for values at or beyond the usual limits of such assays; settings: source organism: Vibrio vulnificus YJ016
[31] = target: HLA-B*15:17; test: as above; settings: source organism: Vibrio vulnificus YJ016
[32] = target: HLA-B*15:09; test: as above; settings: source organism: Vibrio vulnificus CMCP6
[33] = target: HLA-A*02:06; test: IEDB peptide-MHC binding, purified MHC/competitive/fluorescence; filed as Kd, often an IC50 or EC50 that approximates it; ≥ and ≤ were set here for values at or beyond the usual limits of such assays; settings: source organism: Vibrio vulnificus YJ016
[34] = target: HLA-B*18:01; test: as above; settings: source organism: Vibrio vulnificus YJ016
[35] = source organism: Corynebacterium glutamicum
[36] = source organism: Camelpox virus M-96
[37] = source organism: Vibrio vulnificus YJ016
[38] = source organism: Vibrio vulnificus CMCP6

Kd [1, 35]: ≥ 20 µM | Kd [2, 35]: ≥ 20 µM | Kd [3]: 0.0017 µM | Kd [4, 35]: ≥ 20 µM | Kd [5, 35]: ≥ 20 µM | Kd [6, 35]: ≥ 20 µM | Kd [7, 35]: ≥ 20 µM | Kd [8, 35]: 1.28 µM | Kd [9, 35]: 0.00878 µM | Kd [10, 35]: ≥ 20 µM | Kd [11, 35]: ≥ 20 µM | Kd [12, 35]: ≥ 20 µM | Kd [13, 35]: ≥ 5 µM | Kd [14]: 7.5 µM | Kd [15, 35]: ≥ 20 µM
Sequence: WPALSSIAA

Sequence: ATNDGLIKK
Kd [2, 36]: 0.01 µM | Kd [5, 36]: 1.46 µM | Kd [6, 36]: ≥ 20 µM | Kd [16, 36]: ≥ 20 µM | Kd [7, 36]: ≥ 20 µM | Kd ([8]; source organism: Variola virus): ≥ 20 µM | Kd [9, 36]: ≥ 20 µM | Kd [10, 36]: 9 µM | Kd [17, 36]: ≥ 20 µM | Kd [18]: ≥ 20 µM | Kd [19, 36]: ≥ 20 µM | Kd [11, 36]: 0.119 µM | Kd ([20]; source organism: Variola virus): ≥ 20 µM | Kd [12, 36]: ≥ 20 µM | Kd [21]: ≥ 20 µM | Kd [22]: ≥ 20 µM | Kd [23]: ≥ 20 µM | Kd [24]: ≥ 20 µM | Kd [13, 36]: ≥ 20 µM | Kd [15, 36]: ≥ 20 µM | Kd [25]: ≥ 20 µM

Sequence: NIKHKERIP
IC50 ([26]; source organism: Vaccinia virus Copenhagen): ≥ 292 µM

Sequence: TPKAQREIF
IC50 [27]: 14.1 µM | IC50 ([26]; source organism: Variola virus): ≥ 142 µM | IC50 [28]: 16.1 µM

Sequence: HRTIHHASA
IC50 [29]: ≥ 156 µM | IC50 ([26]; source organism: Zaire ebolavirus): ≥ 138 µM

Sequence: GWPDNYCEW
Kd [1, 37]: 0.0067 µM | Kd [2, 37]: ≥ 20 µM | Kd [30]: 0.225 µM | Kd [4, 38]: ≥ 20 µM | Kd [16, 37]: ≥ 20 µM | Kd [7, 37]: ≥ 20 µM | Kd [8, 38]: ≥ 20 µM | Kd [9, 37]: ≥ 20 µM | Kd [10, 37]: ≥ 20 µM | Kd [17, 37]: ≥ 20 µM | Kd [19, 37]: ≥ 20 µM | Kd [11, 37]: ≥ 20 µM | Kd [20, 38]: ≥ 20 µM | Kd [31]: ≥ 20 µM | Kd [13, 37]: ≥ 20 µM | Kd [15, 37]: ≥ 20 µM | Kd [32]: ≥ 20 µM | Kd [33]: 2.17 µM | Kd [34]: 2.29 µM
